Assay results: article PMC11948038, “Evolutionary Pro‐To‐Thr Mutation in the Intrinsically Disordered Domain of ANP32 Family Members Modulates Their Target Binding Modes” (Advanced Science, 2025)
Each block holds one binder with its values, some of them ahead of it.

B1: cytochrome c (natural protein)
chain: not shown
notes: cytochrome c (Cc), a hemeprotein; Carries a heme group; the reduced form was used in ITC and NMR relaxation; 15N-labelled for the NMR titrations; Expression and purification are in the Supporting Information Appendix; also called Cc; hemeprotein Cc; source: details in the Supporting Information

How the values were obtained:
Conditions in all cases: both partners purified
biotinylated ANP32B = target: T1, biotinylated ANP32B (human, UniProt Q92688 1-251, biotin (site not stated)); assay: BLI; biotinylated ANP32 proteins on a streptavidin-coated sensor, increasing concentrations of Cc; wavelength shifts at equilibrium plotted against Cc concentration
T1 construct: ANP32B, human, biotinylated and attached to a streptavidin-coated sensor

biotinylated ANP32A = target: T2, biotinylated ANP32A (human, UniProt P39687 1-249, biotin (site not stated)); assay: as above
T2 construct: ANP32A, human, biotinylated and attached to a streptavidin-coated sensor

full-length ANP32A [1] = target: T3, full-length ANP32A (human, UniProt P39687 1-249); assay: ITC; moderate ionic strength (100 mM): 20 mM sodium phosphate pH 7.4 with 50 mM NaCl; 400 µM reduced Cc injected into 50 µM ANP32A; single site
T3 construct: Used in ITC and NMR titrations; construct details are in the Supporting Information Appendix; also called acidic leucine-rich nuclear phosphoprotein 32 A; source: details in the Supporting Information

full-length ANP32A [2] = target: T3, full-length ANP32A; assay: ITC; low ionic strength (25 mM): 10 mM sodium phosphate pH 7.4; 400 µM reduced Cc injected into 50 µM ANP32A construct; two-ligand binding sites model, no cooperativity
full-length ANP32A [3] = target: T3, full-length ANP32A; assay: as above; remark: listed apart in the source
cytochrome c = target: B1; assay: ITC; 1 mM peptide titrated onto 110 or 150 µM reduced Cc; 10 mM sodium phosphate pH 6.3; single binding-site model
Chain of cytochrome c (P99999 2-105): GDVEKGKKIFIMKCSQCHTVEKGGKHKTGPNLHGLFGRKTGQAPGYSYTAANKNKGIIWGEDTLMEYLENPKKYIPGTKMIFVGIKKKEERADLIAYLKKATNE

HuR_(106-326) [4] = target: T4, HuR_(106-326) (UniProt Q15717 106-326); assay: ITC; 1 mM peptide titrated onto 100 µM HuR_(106-326); 10 mM sodium phosphate pH 6.3, low ionic strength
T4 construct: also called HuR construct containing the RRM domains 2 and 3, separated by the hinge region; source: details in the Supporting Information
T4 sequence (Q15717 106-326): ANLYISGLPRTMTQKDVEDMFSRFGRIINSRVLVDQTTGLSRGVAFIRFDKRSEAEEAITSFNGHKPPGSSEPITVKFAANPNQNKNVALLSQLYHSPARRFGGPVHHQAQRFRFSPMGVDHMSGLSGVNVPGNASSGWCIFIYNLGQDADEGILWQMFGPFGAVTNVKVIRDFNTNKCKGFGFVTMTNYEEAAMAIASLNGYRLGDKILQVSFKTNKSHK

HuR_(106-326) [5] = target: T5, HuR_(106-326) (UniProt Q15717 106-326); assay: ITC; 1 mM peptide titrated onto 100 µM HuR106-326 in the cell; 17 injections of 2.91 µL; 10 mM sodium phosphate buffer pH 6.3 (low ionic strength); stirring 200 rpm; Nano ITC Low Volume
T5 construct: amplified from a pGEX-4T-2 plasmid carrying full-length HuR; No cleavage of the tags is told; also called human antigen R construct with RRM2, hinge region and RRM3; source: E. coli BL21 (DE3), purified (Ni-NTA, dialysis)
T5 sequence (Q15717 106-326): as above

Binder: B1
Kd (biotinylated ANP32B): ~4.2 µM
Kd (biotinylated ANP32A): ~2.3 µM
Kd (full-length ANP32A [1]): 32 µM
dH (full-length ANP32A [1]): 1.5 kcal/mol
stoichiometry N (full-length ANP32A [1]): 0.6 ± 0.03
KD of site 1 (full-length ANP32A [2]): 3.6 µM
KD of site 2 (full-length ANP32A [2]): 34 µM
dH of site 1 (full-length ANP32A [2]): 0.4 kcal/mol
dH of site 2 (full-length ANP32A [2]): 8.6 kcal/mol
stoichiometry N (full-length ANP32A [3]): 2

B3: ANP32A_(230-249) P241T peptide (peptide)
peptide: EEERGQKRKRETEDEGEDDD
notes: also called single mutant; source: synthetic peptide (Genecust, France)
Kd (cytochrome c): 190 µM
dH (cytochrome c): -6.9 kcal/mol
stoichiometry N (cytochrome c): 0.77 ± 0.03

B4: ANP32A_(230-249) Q235E/P241T peptide (peptide)
peptide: EEERGEKRKRETEDEGEDDD
notes: also called double mutant; source: synthetic peptide (Genecust, France)
Kd (cytochrome c): 190 µM
dH (cytochrome c): -8.2 kcal/mol
stoichiometry N (cytochrome c): 0.77 ± 0.03

More lines, now with the values ahead:

Kd (cytochrome c): 710 µM
dH (cytochrome c): -8 kcal/mol
stoichiometry N (cytochrome c): 1.2 ± 0.03
stoichiometry N (HuR_(106-326) [4]): 2
B2: ANP32B_(232-251) peptide (peptide)
peptide: EEGGKGEKRKRETDDEGEDD
notes: also called ANP32B peptide; source: synthetic peptide (Genecust, France)

Kd (cytochrome c): 69 µM
dH (cytochrome c): -2.6 kcal/mol
stoichiometry N (cytochrome c): 0.76 ± 0.03
fold affinity against ANP32B_(232-251) (HuR_(106-326) [4]): ~5 fold
stoichiometry N (HuR_(106-326) [4]): 2
B5: ANP32A_(230-249) peptide (peptide)
peptide: EEERGQKRKREPEDEGEDDD
notes: also called ANP32A peptide; NLS-containing peptide; source: synthetic peptide (Genecust, France)

Kd (HuR_(106-326) [5]): 550 µM
stoichiometry N (HuR_(106-326) [5]): 1.9 ± 0.03
B6: ANP32B_(232-251) peptide (peptide)
peptide: EEGGKGEKRKRETDDEGEDD
notes: as for B2

Kd (HuR_(106-326) [5]): 120 µM
stoichiometry N (HuR_(106-326) [5]): 1.8 ± 0.03
B7: ANP32A_(230-249) peptide (peptide)
peptide: EEERGQKRKREPEDEGEDDD
notes: also called ANP32A peptide; source: synthetic peptide (Genecust, France)
